In patent EP4086281A1 (China Immunotech (Beijing) Biotechnology Co., Ltd, dated 2022):

Molecular target: T1, CD19 expressed by Raji cells (human lymphoma cell line) (human, UniProt P15391 20-556)
T1 construct: whole, on cells; On intact Raji cells in flow cytometry and co-culture; In the western blot it is the denatured protein of a Raji lysate (band of 95kD); also called CD19 protein in the Raji cells
T1 sequence (looked up): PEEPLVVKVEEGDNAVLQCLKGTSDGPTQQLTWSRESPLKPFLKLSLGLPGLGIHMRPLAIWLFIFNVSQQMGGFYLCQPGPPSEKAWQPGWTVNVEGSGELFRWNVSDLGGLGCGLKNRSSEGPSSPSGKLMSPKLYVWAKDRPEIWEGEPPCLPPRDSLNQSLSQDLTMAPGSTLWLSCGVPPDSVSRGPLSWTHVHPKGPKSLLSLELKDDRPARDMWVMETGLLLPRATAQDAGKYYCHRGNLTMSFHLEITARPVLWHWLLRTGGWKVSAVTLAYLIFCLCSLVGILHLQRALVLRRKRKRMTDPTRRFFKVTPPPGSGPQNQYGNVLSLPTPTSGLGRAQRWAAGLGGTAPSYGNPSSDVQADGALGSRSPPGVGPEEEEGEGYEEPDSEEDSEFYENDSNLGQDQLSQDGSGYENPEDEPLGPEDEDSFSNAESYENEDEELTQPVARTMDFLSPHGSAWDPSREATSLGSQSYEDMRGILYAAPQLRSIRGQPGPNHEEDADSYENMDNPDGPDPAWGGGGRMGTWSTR
Assay: flow cytometry on Raji cells, antibody titrated from 0 to 375 nM, curve fitted with GraphPad

Kd: 1.53 nM
B1: monoclonal antibody 334 targeting CD19 (hybridoma CGMCC No. 17095) (antibody, V domains shown)
VH: QVQLQQSGAELVRPGASVKLSCKALGFIFTDYEIHWVKQTPVHGLEWIGAFHPGSGGSAYNQKFKGKATLTADKSSSTAYMELSSLTFEDSAVYHCTRQLGPDWGQGTLVTVS
VL: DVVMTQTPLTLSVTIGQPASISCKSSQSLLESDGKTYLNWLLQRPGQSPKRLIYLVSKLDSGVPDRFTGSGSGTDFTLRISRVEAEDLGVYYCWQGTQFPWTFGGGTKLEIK
notes: it is a hybridoma antibody detected with anti-mouse secondary antibodies
